In the supplement of paper PMC9112550, “Optimization of the antimicrobial peptide Bac7 by deep mutational scanning” (BMC Biology, 2022):

system: Escherichia coli TOP10; assay: shrunken log2 fold change of peptide-encoding DNA abundance (4.5 h post-induction vs induction); higher = less antimicrobial activity (less host growth inhibition); settings: time post-induction: 4.5 h; library: site-saturation at positions 5, 18, 19, 20
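Also: peptides expressed intracellularly from a pBAD plasmid library in pooled LB shake-flask culture, induced with 0.3% L-arabinose, DNA abundance read by NGS, three biological replicates, DESeq2 with apeglm shrinkage.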

| Sequence | shrunken log2 fold change |
| --- | --- |
| RRIRTRPPRLPRPRPRPTDYPRP | -0.263 |
| RRIRTRPPRLPRPRPRPTEKPRP | 0.015 |
| RRIRTRPPRLPRPRPRPTEQPRP | 0.303 |
| RRIRTRPPRLPRPRPRPTFCPRP | 0.147 |
| RRIRTRPPRLPRPRPRPTFVPRP | -0.262 |
| RRIRTRPPRLPRPRPRPTGCPRP | -0.388 |
| RRIRTRPPRLPRPRPRPTGMPRP | 0.13 |
| RRIRTRPPRLPRPRPRPTHHPRP | -0.0136 |
| RRIRTRPPRLPRPRPRPTHSPRP | 0.384 |
| RRIRTRPPRLPRPRPRPTIYPRP | -0.409 |
| RRIRTRPPRLPRPRPRPTKDPRP | -0.244 |
| RRIRTRPPRLPRPRPRPTKNPRP | -0.083 |
| RRIRTRPPRLPRPRPRPTKQPRP | -0.0507 |
| RRIRTRPPRLPRPRPRPTLMPRP | -0.142 |
| RRIRTRPPRLPRPRPRPTLPPRP | 0.149 |
| RRIRTRPPRLPRPRPRPTLQPRP | 0.336 |
| RRIRTRPPRLPRPRPRPTMPPRP | -0.0706 |
| RRIRTRPPRLPRPRPRPTNTPRP | -0.536 |
| RRIRTRPPRLPRPRPRPTPYPRP | -0.298 |
| RRIRTRPPRLPRPRPRPTQNPRP | 0.385 |
| RRIRTRPPRLPRPRPRPTRYPRP | 0.228 |
| RRIRTRPPRLPRPRPRPTTNPRP | -0.19 |

| Sequence | shrunken log2 fold change |
| --- | --- |
| RRIRTRPPRLPRPRPRPTVDPRP | -0.126 |
| RRIRTRPPRLPRPRPRPTVIPRP | -0.17 |
| RRIRTRPPRLPRPRPRPTVVPRP | 0.0732 |
| RRIRTRPPRLPRPRPRPTWDPRP | 0.478 |
| RRIRTRPPRLPRPRPRPTWMPRP | -0.0339 |
| RRIRTRPPRLPRPRPRPTYKPRP | -0.651 |
| RRIRTRPPRLPRPRPRPVAAPRP | 0.389 |
| RRIRTRPPRLPRPRPRPVASPRP | 0.0362 |
| RRIRTRPPRLPRPRPRPVCGPRP | 0.179 |
| RRIRTRPPRLPRPRPRPVDFPRP | 0.231 |
| RRIRTRPPRLPRPRPRPVEAPRP | 0.0918 |
| RRIRTRPPRLPRPRPRPVEFPRP | 0.0128 |
| RRIRTRPPRLPRPRPRPVEHPRP | 0.0387 |
| RRIRTRPPRLPRPRPRPVEWPRP | 0.168 |
| RRIRTRPPRLPRPRPRPVFPPRP | -0.339 |
| RRIRTRPPRLPRPRPRPVFQPRP | -0.0322 |
| RRIRTRPPRLPRPRPRPVGHPRP | -0.00107 |
| RRIRTRPPRLPRPRPRPVIFPRP | -0.335 |
| RRIRTRPPRLPRPRPRPVKLPRP | 0.0303 |
| RRIRTRPPRLPRPRPRPVLIPRP | 0.233 |
| RRIRTRPPRLPRPRPRPVLRPRP | 0.11 |
| RRIRTRPPRLPRPRPRPVMHPRP | 0.102 |

| Sequence | shrunken log2 fold change |
| --- | --- |
| RRIRTRPPRLPRPRPRPVMIPRP | -0.126 |
| RRIRTRPPRLPRPRPRPVMRPRP | -0.0406 |
| RRIRTRPPRLPRPRPRPVNLPRP | -0.0397 |
| RRIRTRPPRLPRPRPRPVPMPRP | -0.299 |
| RRIRTRPPRLPRPRPRPVPYPRP | -0.0764 |
| RRIRTRPPRLPRPRPRPVSNPRP | -0.442 |
| RRIRTRPPRLPRPRPRPVSYPRP | -0.242 |
| RRIRTRPPRLPRPRPRPVTSPRP | -0.0276 |
| RRIRTRPPRLPRPRPRPVWCPRP | -0.113 |
| RRIRTRPPRLPRPRPRPVYAPRP | -0.249 |
| RRIRTRPPRLPRPRPRPWASPRP | -0.068 |
| RRIRTRPPRLPRPRPRPWAVPRP | -0.0894 |
| RRIRTRPPRLPRPRPRPWCCPRP | -0.227 |
| RRIRTRPPRLPRPRPRPWCNPRP | -0.0437 |
| RRIRTRPPRLPRPRPRPWDNPRP | -0.0778 |
| RRIRTRPPRLPRPRPRPWDPPRP | 0.102 |
| RRIRTRPPRLPRPRPRPWFPPRP | -0.735 |
| RRIRTRPPRLPRPRPRPWFRPRP | -0.128 |
| RRIRTRPPRLPRPRPRPWHEPRP | 0.111 |
| RRIRTRPPRLPRPRPRPWHVPRP | 0.0162 |
| RRIRTRPPRLPRPRPRPWIPPRP | -0.2 |
| RRIRTRPPRLPRPRPRPWKFPRP | -0.0178 |

| Sequence | shrunken log2 fold change |
| --- | --- |
| RRIRTRPPRLPRPRPRPWLPPRP | -0.164 |
| RRIRTRPPRLPRPRPRPWPDPRP | -0.0269 |
| RRIRTRPPRLPRPRPRPWPRPRP | 0.116 |
| RRIRTRPPRLPRPRPRPWRIPRP | 0.025 |
| RRIRTRPPRLPRPRPRPWSMPRP | -0.36 |
| RRIRTRPPRLPRPRPRPWTEPRP | 0.00497 |
| RRIRTRPPRLPRPRPRPWVPPRP | 0.252 |
| RRIRTRPPRLPRPRPRPYASPRP | -0.255 |
| RRIRTRPPRLPRPRPRPYFMPRP | -0.836 |
| RRIRTRPPRLPRPRPRPYGCPRP | -0.00664 |
| RRIRTRPPRLPRPRPRPYHVPRP | -0.0196 |
| RRIRTRPPRLPRPRPRPYKVPRP | -1.32 |
| RRIRTRPPRLPRPRPRPYLLPRP | -0.654 |
| RRIRTRPPRLPRPRPRPYLRPRP | -0.163 |
| RRIRTRPPRLPRPRPRPYMMPRP | 0.0264 |
| RRIRTRPPRLPRPRPRPYNRPRP | -0.0176 |
| RRIRTRPPRLPRPRPRPYPQPRP | -0.14 |
| RRIRTRPPRLPRPRPRPYPWPRP | -0.178 |
| RRIRTRPPRLPRPRPRPYQNPRP | -0.3 |
| RRIRTRPPRLPRPRPRPYSCPRP | -0.0718 |
| RRIRTRPPRLPRPRPRPYTEPRP | -0.267 |
| RRIRTRPPRLPRPRPRPYTTPRP | -0.718 |

| Sequence | shrunken log2 fold change |
| --- | --- |
| RRIRTRPPRLPRPRPRPYWPPRP | -0.424 |
| RRIRTRPPRLPRPRPRPYWTPRP | 0.0389 |
| RRIRTRPPRLPRPRPRPYYMPRP | -1.06 |
| RRIRVRPPRLPRPRPRPAAMPRP | 0.347 |
| RRIRVRPPRLPRPRPRPACSPRP | -0.0142 |
| RRIRVRPPRLPRPRPRPADKPRP | -0.0503 |
| RRIRVRPPRLPRPRPRPAFVPRP | 0.00544 |
| RRIRVRPPRLPRPRPRPAGCPRP | 0.459 |
| RRIRVRPPRLPRPRPRPAHWPRP | 0.313 |
| RRIRVRPPRLPRPRPRPAKPPRP | 0.296 |
| RRIRVRPPRLPRPRPRPAKVPRP | 0.203 |
| RRIRVRPPRLPRPRPRPALTPRP | 0.117 |
| RRIRVRPPRLPRPRPRPAMWPRP | -0.0044 |
| RRIRVRPPRLPRPRPRPANRPRP | -0.179 |
| RRIRVRPPRLPRPRPRPANSPRP | -0.117 |
| RRIRVRPPRLPRPRPRPAPKPRP | 0.438 |
| RRIRVRPPRLPRPRPRPAPLPRP | 0.255 |
| RRIRVRPPRLPRPRPRPASAPRP | 0.309 |
| RRIRVRPPRLPRPRPRPASFPRP | 0.115 |
| RRIRVRPPRLPRPRPRPASNPRP | -0.0943 |
| RRIRVRPPRLPRPRPRPATLPRP | -0.00452 |
